For orientation: Km means the concentration of substrate that gives half-maximal velocity. The Vmax is the top rate of the reaction or transport when substrate is in excess.

What all share (type): biochemical
Data set [1] addresses T1, soybean LOX-1 (Glycine max, UniProt P08170).
T1 construct: purchased Sigma-Aldrich Corp (St. Louis, Mo., USA) lipoxidase Type I-B
T1 sequence (P08170 1-839): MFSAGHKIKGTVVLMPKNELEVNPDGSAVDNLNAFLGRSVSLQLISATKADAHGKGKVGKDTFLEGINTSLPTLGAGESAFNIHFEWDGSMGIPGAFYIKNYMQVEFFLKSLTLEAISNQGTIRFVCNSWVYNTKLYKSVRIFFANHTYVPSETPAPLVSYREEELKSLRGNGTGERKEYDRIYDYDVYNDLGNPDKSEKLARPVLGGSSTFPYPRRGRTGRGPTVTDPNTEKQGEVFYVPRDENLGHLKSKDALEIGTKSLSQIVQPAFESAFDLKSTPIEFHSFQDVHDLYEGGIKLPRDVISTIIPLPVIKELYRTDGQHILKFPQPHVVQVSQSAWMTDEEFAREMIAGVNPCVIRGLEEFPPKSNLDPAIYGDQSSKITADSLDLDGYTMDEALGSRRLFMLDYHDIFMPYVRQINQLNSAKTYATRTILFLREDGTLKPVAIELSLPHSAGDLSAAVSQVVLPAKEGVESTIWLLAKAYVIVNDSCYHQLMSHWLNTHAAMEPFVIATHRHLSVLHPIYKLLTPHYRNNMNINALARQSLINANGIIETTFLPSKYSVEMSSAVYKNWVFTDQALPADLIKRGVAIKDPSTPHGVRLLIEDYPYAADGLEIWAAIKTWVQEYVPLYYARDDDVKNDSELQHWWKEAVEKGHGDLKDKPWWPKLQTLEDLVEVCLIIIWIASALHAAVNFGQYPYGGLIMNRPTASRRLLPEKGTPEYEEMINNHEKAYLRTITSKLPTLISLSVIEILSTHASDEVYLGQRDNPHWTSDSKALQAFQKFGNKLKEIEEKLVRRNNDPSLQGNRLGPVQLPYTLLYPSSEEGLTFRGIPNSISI
Briefly: Kinetics of oxygenation of docosahexaenoic acid derivatives by soybean LOX-1. The conditions noted are these: soybean LOX-1 2.5 units/ml, 50 mM borax buffer pH 9.0, 25° C. As to the method:
(§1) Soybean LOX-1 (2.5 units/ml) was incubated with docosahexaenoyl-lysoPC, didocosahexaenoyl-lysoPC or docosahexaenoic acid of various concentrations in 500 μl of 50 mM borax buffer (pH 9.0) at 25° C. Values were expressed as means ±S.D. of results from at least three independent experiments.

The target in data set [2] is T2, Porcine leukocyte LOX (Sus scrofa, UniProt P16469).
T2 construct: purchased Cayman Chemical Co. (Ann Arbor, Mich., USA)
T2 sequence (P16469 1-663): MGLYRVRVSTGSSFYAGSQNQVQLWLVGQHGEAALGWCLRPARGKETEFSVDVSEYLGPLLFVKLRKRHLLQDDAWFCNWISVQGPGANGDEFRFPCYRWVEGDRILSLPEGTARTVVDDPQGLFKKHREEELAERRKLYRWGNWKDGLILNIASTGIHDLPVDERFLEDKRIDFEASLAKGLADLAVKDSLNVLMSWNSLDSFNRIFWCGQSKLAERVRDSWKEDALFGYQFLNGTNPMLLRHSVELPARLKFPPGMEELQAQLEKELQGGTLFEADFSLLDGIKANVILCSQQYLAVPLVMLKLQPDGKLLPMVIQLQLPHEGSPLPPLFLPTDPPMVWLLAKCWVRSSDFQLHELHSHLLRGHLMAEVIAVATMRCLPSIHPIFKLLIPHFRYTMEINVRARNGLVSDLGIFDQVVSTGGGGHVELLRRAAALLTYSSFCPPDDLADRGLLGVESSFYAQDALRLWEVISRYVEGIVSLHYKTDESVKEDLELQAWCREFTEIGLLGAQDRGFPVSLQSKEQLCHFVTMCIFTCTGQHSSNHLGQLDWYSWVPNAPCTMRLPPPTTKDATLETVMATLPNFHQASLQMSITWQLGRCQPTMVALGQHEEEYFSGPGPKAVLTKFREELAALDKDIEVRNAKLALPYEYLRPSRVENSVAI
In words: Kinetics of oxygenation of docosahexaenoyl-lysoPC or docosahexaenoic acid by leukocyte LOX. Conditions: porcine leukocyte LOX 2 units/ml, 100 mM phosphate buffer pH 7.4, 5 mM EDTA. On the procedure:
Porcine leukocyte LOX (2 units/ml) was incubated with each substrate docosahexaenoyl-lysoPC or docosahexaenoic acid of various concentrations in 500 μl of 100 mM phosphate buffer (pH 7.4) containing 5 mM EDTA and 0.03% Tween 20 at 25° C.

Substrate in data set [3]: CCCCC/C=C\C/C=C\C/C=C\C/C=C\CCCC(=O)O
Briefly: Kinetics of oxygenation of arachidonic acid or arachidonoyl-lysophospholipids by soybean LOX-1. The conditions noted are these: other: soybean LOX-1 2.5 units/ml, 50 mM borax buffer pH 9.0, 25° C. On the procedure: Activities of various LOXs were monitored by measuring the increase in absorbance at 234 nm due to the formation of hydroperoxide (ε234=25,000 M^−1 cm^−1) at 25° C. as described before (Smith et al, J. Biol. Chem. 247 (1972) 1038-1047). One unit is defined as the amount of LOXs that can produce one nanomole of conjugated diene per min. The reaction mixture (500 μl) included reticulocyte LOX (2 units/ml) in 50 mM phosphate buffer (pH 7.4), porcine leukocyte LOX (1 unit/ml) in 100 mM phosphate buffer (pH 7.5) containing 5 mM EDTA and 0.03% Tween 20, or soybean LOX-1 (2.5 units/ml) in 50 mM borax buffer (pH 9.0) at 25° C. The reactions were started by including each substrate (100 μM) into the above reaction mixture.
Reticulocyte LOX (2 units/ml), leukocyte LOX (1 units/ml) or soybean LOX-1 (2.5 units/ml) was incubated with each arachidonoyl derivative substrate of various concentrations as described above. The values of kinetic parameters were obtained according to Lineweaver Burke plot analyses as described before (Barroso et al, J. Chromatogr. B. Analyt. Technol. Biomed. Life. Sci. 814 (2005) 21-28).

Substrate in data set [4]: CC/C=C\C/C=C\C/C=C\C/C=C\C/C=C\C/C=C\CCC(=O)O
In words: Kinetics of oxygenation of docosahexaenoic acid derivatives by soybean LOX-1. Conditions: other: soybean LOX-1 2.5 units/ml, 50 mM borax buffer pH 9.0, 25° C. On the procedure:
as §1

As to `CC/C=C\C/C=C\C/C=C\C/C=C\C/C=C\C/C=C\CCC(=O)OCC(O)COP(=O)([O-])OCC[N+](C)(C)C` (stereo not drawn) [Docosahexaenoyl-lysoPC, 1-docosahexenoyl lysophosphatidylcholine], the Km was determined as 2.2 ± 0.6 µM in data set [1] and 3.4 ± 1.8 µM in data set [2] (0.03% Tween 20, 25° C.). Further, the Vm in data set [1] is recorded as 104.2 ± 5.2 units/μg; in data set [2] (0.03% Tween 20), 77.2 ± 2.8 units/mg.

B1: soybean LOX-1 (Glycine max) (protein)
chain: MFSAGHKIKGTVVLMPKNELEVNPDGSAVDNLNAFLGRSVSLQLISATKADAHGKGKVGKDTFLEGINTSLPTLGAGESAFNIHFEWDGSMGIPGAFYIKNYMQVEFFLKSLTLEAISNQGTIRFVCNSWVYNTKLYKSVRIFFANHTYVPSETPAPLVSYREEELKSLRGNGTGERKEYDRIYDYDVYNDLGNPDKSEKLARPVLGGSSTFPYPRRGRTGRGPTVTDPNTEKQGEVFYVPRDENLGHLKSKDALEIGTKSLSQIVQPAFESAFDLKSTPIEFHSFQDVHDLYEGGIKLPRDVISTIIPLPVIKELYRTDGQHILKFPQPHVVQVSQSAWMTDEEFAREMIAGVNPCVIRGLEEFPPKSNLDPAIYGDQSSKITADSLDLDGYTMDEALGSRRLFMLDYHDIFMPYVRQINQLNSAKTYATRTILFLREDGTLKPVAIELSLPHSAGDLSAAVSQVVLPAKEGVESTIWLLAKAYVIVNDSCYHQLMSHWLNTHAAMEPFVIATHRHLSVLHPIYKLLTPHYRNNMNINALARQSLINANGIIETTFLPSKYSVEMSSAVYKNWVFTDQALPADLIKRGVAIKDPSTPHGVRLLIEDYPYAADGLEIWAAIKTWVQEYVPLYYARDDDVKNDSELQHWWKEAVEKGHGDLKDKPWWPKLQTLEDLVEVCLIIIWIASALHAAVNFGQYPYGGLIMNRPTASRRLLPEKGTPEYEEMINNHEKAYLRTITSKLPTLISLSVIEILSTHASDEVYLGQRDNPHWTSDSKALQAFQKFGNKLKEIEEKLVRRNNDPSLQGNRLGPVQLPYTLLYPSSEEGLTFRGIPNSISI
notes: purchased Sigma-Aldrich Corp (St. Louis, Mo., USA) lipoxidase Type I-B
For B1, in data set [3], the Km came out at 12.4 µM, the maximum rate (Vmax) was determined as 92200 nmol/min/mg and the Vmax/Km was determined as 7.4e+06 µL/min/mg. Moreover, in data set [4], the Km was 16.8 ± 1.4 µM and the maximum rate (Vmax) came out at 178000 nmol/min/mg.

The values are drawn from patent US20070264679A1, “Method for analyzing the activity of lipoxygenase using a water-soluble substrate” (Chungnam National University Industry Collaboration …, priority 2006, published 2007).
